Assay results published in paper PMC10284121 (2023).
Blank lines part the entries; values can stand above or below the binder they belong to.

Molecular target: Pin1 phosphopeptide (fluorescein-labelled) (Homo sapiens, UniProt Q13526)
Assay: fluorescence anisotropy

Sequence of Pin1 phosphopeptide (fluorescein-labelled) (Q13526 whole entry): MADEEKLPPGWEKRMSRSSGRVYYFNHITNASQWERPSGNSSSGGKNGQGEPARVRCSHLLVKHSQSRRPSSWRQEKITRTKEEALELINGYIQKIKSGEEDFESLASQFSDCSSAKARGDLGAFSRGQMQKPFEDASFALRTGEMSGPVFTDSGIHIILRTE

B1: 14-3-3γ (protein)
chain: VDREQLVQKARLAEQAERYDDMAAAMKNVTELNEPLSNEERNLLSVAYKNVVGARRSSWRVISSIEQKTSADGNEKKIEMVRAYREKIEKELEAVCQDVLSLLDNYLIKNCSETQYESKVFYLKMKGDYYRYLAEVATGEKRATVVESSEKAYSEAHEISKEHMQPTHPIRLGLALNYSVFYYEIQNAPEQACHLAKTAFDDAIAELDTLNEDSYKDSTLIMQLLRDNLTLWTSDQQDDDGGEGNN
modifications: phosphopeptide, fluorescein label, MG1 present (2-3 h)
Kd: 1.5 µM

B2: 14-3-3γ (protein)
chain: B1 chain
modifications: phosphopeptide, fluorescein label, MG1 present (10 min)
Kd: 5.4 µM

B5: 14-3-3γ (protein)
chain: B1 chain
modifications: phosphopeptide, fluorescein label
Kd: 30 µM

B6: 14-3-3γ (protein)
chain: B1 chain
modifications: phosphopeptide, fluorescein label, MG1 present, pH 8.0
Kd: ~0.6 µM

Further binders by falling Kd, results first:

Kd: ~5.2 µM
B4: 14-3-3γ (protein)
chain: B1 chain
modifications: phosphopeptide, fluorescein label, MG1 present, pH 6.5

Kd: 2.9 µM
B3: 14-3-3γ (protein)
chain: B1 chain
modifications: phosphopeptide, fluorescein label, fusicoccin-A present
